# Data published in patent publication US20140363428A1 (Chugai, published 2014).
# Where a chain is given by its changes, count along the chain named.
# B1: IgG1-F1106 (antibody)
# heavy: QVQLQESGPGLVKPSETLSLTCAVSGHSISHDHAWSWVRQPPGEGLEWIGFISYSGITNYNPSLQGRVTISRDNSKNTLYLQMNSLRAEDTAVYYCARSLARTTAMDYWGEGTLVTVSSASTKGPSVFPLAPSSKSTSGGTAALGCLVKDYFPEPVTVSWNSGALTSGVHTFPAVLQSSGLYSLSSVVTVPSSSLGTQTYICNVNHKPSNTKVDKKVEPKSCDKTHTCPPCPAPELLGGPSVFLFPPKPKDTLYISRTPEVTCVVVDVSHEDPEVKFNWYVDGVEVHNAKTKPREEQYNSTYRVVSVLTVLHQDWLNGKEYKCKVSNKALPAPIEKTISKAKGQPREPQVYTLPPSRDELTKNQVSLTCLVKGFYPSDIAVEWESNGQPENNYKTTPPVLDSDGSFFLYSKLTVDKSRWQQGNVFSCSVMHEALHYHVTRKELSLSP
# light: not shown
# notes: VH3-IgG1 with Fc substitutions (EU numbering) + L(WT)-CK
# B2: IgG1-F1115 (antibody)
# heavy: B1 heavy with S426N, R440Q, E442S
# light: not shown
# notes: as for B1
# B3: IgG1-F1122 (antibody)
# heavy: B1 heavy with T252V, T309Q, V310P, Q313A, E442S
# light: not shown
# notes: as for B1
# B4: IgG1-F1120 (antibody)
# heavy: B1 heavy with T252V, T309Q, V310P, Q313A, S426R, R440Q, E442S
# light: not shown
# notes: as for B1
# B5: IgG1-F1107 (antibody)
# heavy: B1 heavy with V424D, R440Q, E442S
# light: not shown
# notes: as for B1
# B6: IgG1-F1121 (antibody)
# heavy: B1 heavy with T252V, T309Q, V310P, Q313A, V424E, S426R, R440Q, E442S
# light: not shown
# notes: as for B1
# B7: IgG1-F1126 (antibody)
# heavy: B1 heavy with T309A, R440Q, E442S
# light: not shown
# notes: as for B1
# B8: IgG1-F1112 (antibody)
# heavy: B1 heavy with R440K, E442S
# light: not shown
# notes: as for B1
# B9: IgG1-F1113 (antibody)
# heavy: B1 heavy with R440Q, E442D
# light: not shown
# notes: as for B1
# B10: IgG1-F1128 (antibody)
# heavy: B1 heavy with Q313H, R440Q, E442S
# light: not shown
# notes: as for B1
# B11: IgG1-F1119 (antibody)
# heavy: B1 heavy with T252V, T309Q, V310P, Q313A, V424E, R440Q, E442S
# light: not shown
# notes: as for B1
# B12: IgG1-F1118 (antibody)
# heavy: B1 heavy with T252V, T309Q, V310P, Q313A, S426N, R440Q, E442S
# light: not shown
# notes: as for B1
# B13: IgG1-F1117 (antibody)
# heavy: B1 heavy with T252V, T309Q, Q313A, S426N, R440Q, E442S
# light: not shown
# notes: as for B1
# B14: IgG1-F1114 (antibody)
# heavy: B1 heavy with R440Q, E442Q
# light: not shown
# notes: as for B1
# B15: IgG1-F1110 (antibody)
# heavy: B1 heavy with V424Q, R440Q, E442S
# light: not shown
# notes: as for B1
# B16: IgG1-F1123 (antibody)
# heavy: B1 heavy with T252V, T309Q, V310P, Q313A, R440Q
# light: not shown
# notes: as for B1
# B17: IgG1-F1109 (antibody)
# heavy: B1 heavy with V424T, R440Q, E442S
# light: not shown
# notes: as for B1
# B18: IgG1-F1127 (antibody)
# heavy: B1 heavy with Q313A, R440Q, E442S
# light: not shown
# notes: as for B1
# B19: IgG1-F1108 (antibody)
# heavy: B1 heavy with V424K, R440Q, E442S
# light: not shown
# notes: as for B1
# B20: IgG1-F1116 (antibody)
# heavy: B1 heavy with T309Q, Q313A, S426N, V438Y, R440Q, E442S
# light: not shown
# notes: as for B1
# B21: IgG1-F1124 (antibody)
# heavy: B1 heavy with T252V, T309Q, V310P, Q313A
# light: not shown
# notes: as for B1
# B22: IgG1-F1111 (antibody)
# heavy: B1 heavy with S426K, R440Q, E442S
# light: not shown
# notes: as for B1
# Target: T1, soluble human FcRn (heterodimer of FcRn alpha chain and beta2-microglobulin) (human, UniProt P55899 24-297; P61769 21-119)
# T1 construct: Expressed in HEK293H and purified on IgG Sepharose; also called hFcRn
# Assay: SPR Biacore T100, antibody captured via protein L, hFcRn analyte, pH 7.0, 25 C;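 note: KD derived from kinetic ka and kd fits of sensorgrams, CM4 sensor chip, sodium phosphate NaCl Tween20 running buffer, buffer-only injection used as reference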
# Procedure: An appropriate amount of protein L (ACTIGEN) was immobilized onto Sensor chip CM4 (GE Healthcare) by the amino coupling method, and the chip was allowed to capture an antibody of interest. Then, diluted FcRn solutions and running buffer (as a reference solution) were injected to allow human FcRn to interact with the antibody captured on the sensor chip. The running buffer used comprised 50 mmol/l sodium phosphate, 150 mmol/l NaCl, and 0.05% (w/v) Tween20 (pH 7.0). FcRn was diluted using each buffer. The chip was regenerated using 10 mmol/l glycine-HCl (pH 1.5). Assays were carried out exclusively at 25 degrees C. The association rate constant ka (1/Ms) and dissociation rate constant kd (1/s), both of which are kinetic parameters, were calculated based on the sensorgrams obtained in the assays, and KD (M) of each antibody for human FcRn was determined from these values. Each parameter was calculated using Biacore T100 Evaluation Software (GE Healthcare).
row,Kd [µM],Binder
1,0.14,B1
2,0.13,B2
3,0.014,B3
4,0.01,B4
5,0.12,B5
6,0.01,B6
7,0.09,B7
8,0.12,B8
9,0.12,B9
10,0.12,B10
11,0.01,B11
12,0.013,B12
13,0.049,B13
14,0.13,B14
15,0.13,B15
16,0.0095,B16
17,0.13,B17
18,0.079,B18
19,0.13,B19
20,0.074,B20
21,0.012,B21
22,0.16,B22
